Reference: the MegaScale stability set (Tsuboyama et al. 2023)

B1: 6NMW (parent)
chain: QGDIVVALYPYDGIHPDDLSFKKGEKMKVLEEHGEWWKAKSLLTKKEGFIPSNYVAKLN

Variants of: B1
Assay: folding stability dG (cDNA display proteolysis); higher = more stable
Details: PBS, room temperature

Variant	folding stability dG [kcal/mol]
G24W	2.51
G24D	2.1
G24M	1.07
G24Y	2.25
G24E	1.16
G24R	0.941
G24N	2.19
G24H	2.15
G24L	1.02
G24T	0.282
G24F	2.13
G24Q	0.576
G24C	3.62
G24A	1.25
G24S	1.3
G24K	0.476
K28G	1.31
K28M	4.6
K28H	3.02
K28C	3.9
K28S	2.77
K28W	4.43
K28F	3.91
K28R	4.26

Variant	folding stability dG [kcal/mol]
K28T	3.27
K28E	4.07
K28Y	4.2
K28N	2.02
K28D	1.21
K28A	3.21
K28V	4.85
F21Y	-0.495
F21W	-0.416
F21I	0.968
F21Q	-0.217
F21C	0.758
F21L	-0.236
F21V	1.74
F21M	1.22
L19P	-0.243
L19A	-0.055
L19I	1.46
L19F	1.02
L19C	0.728
L19D	-0.824
L19Y	0.613
L19S	-0.898
L19T	0.168

Variant	folding stability dG [kcal/mol]
L19W	0.23
L19M	2.12
L19V	0.435
L19N	-0.23
L19R	-0.083
K26A	2.78
K26M	4.51
K26F	4.75
K26W	4.72
K26N	2.15
K26Y	4.84
K26H	4.3
K26I	4.68
K26T	3.12
K26C	4.34
K26E	2.52
K26S	2.3
K26D	0.255
K26P	2.39
K26G	1.11
K26Q	3.56
K26V	4.19
M27I	1.74
M27W	-0.174

Variant	folding stability dG [kcal/mol]
M27V	0.125
M27Q	-0.878
M27F	3.72
M27Y	-0.162
M27H	-0.396
M27C	0.54
E25M	0.74
E25A	1.21
E25V	-0.121
E25L	-0.25
E25Q	0.918
E25R	0.331
E25C	1.3
E25D	2.36
E25N	0.344
E25I	-0.618
E25G	-0.389
E25W	1.22
E25Y	0.16
E25T	0.615
E25F	-0.064
E25S	0.621
E25H	0.959
S20T	3.13

Variant	folding stability dG [kcal/mol]
S20M	1.88
S20R	2.23
S20A	2.64
S20D	1.82
S20L	1.15
S20H	2.03
S20K	2.48
S20Y	1.22
S20W	1.65
S20E	1.75
S20V	2.33
S20P	2.81
S20Q	2.27
S20F	1.18
S20G	2.01
S20C	2.77
S20N	2.01
S20I	2.09
K22T	3.15
K22Y	2.29
K22P	0.747
K22I	3.84
K22C	3.28
K22W	1.45

Variant	folding stability dG [kcal/mol]
K22H	2.66
K22N	2.67
K22A	3.17
K22R	3.65
K22D	2.71
K22V	3.82
K22L	3.21
K22S	3.08
K22Q	3.49
K22G	2.74
K22F	2.5
K22E	3.06
K22M	3.46
K23N	1.18
K23C	3.59
K23I	2.95
K23T	2.75
K23Y	2.51
K23H	1.85
K23D	1.3
K23E	2.88
K23L	2.79
K23A	3.39
K23M	2.89

Variant	folding stability dG [kcal/mol]
K23V	3.39
K23F	2.42
K23Q	3.22
K23P	2.02
K23G	1.64
K23S	2.34
K23W	2.06
K23R	3.33
D18L	2.84
D18V	3.08
D18H	4.91
D18I	2.69
D18P	0.221
D18K	3.08
D18T	3.97
D18W	3.29
D18Q	4.95
D18M	3.67
D18N	2.88
D18R	3.15
D18S	3.94
D18G	3.33
D18Y	4.04
